Reference: patent US20220323445A1, “REDUCING IMMUNOGENICITY TO PEGLOTICASE” (Horizon Therapeutics Ireland DAC, priority 2020, published 2022)

Test system: serum uric acid (sUA)
Assay: Serum uric acid (sUA) levels and sUA responders, open-label study of pegloticase with MTX (NCT03635957)
Type: in vivo, human
Experimental: The primary objective is to estimate the response rate during Month 6 (Weeks 20, 22, and 24), as measured by the sustained normalization of serum uric acid (SUA) to <6 mg/dL for at least 80% of the time during Month 6 in subjects receiving KXX with MTX.
The primary efficacy outcome endpoint is the sustained normalization of SUA to <6 mg/dL for at least 80% of the time during month 6 (weeks 20, 22, and 24) in subjects receiving KXX with MTX. This is slightly below the urate solubility threshold and this threshold has been the accepted standard for nearly all modern gout trials. Participants who achieve this endpoint were classified as “responders.” Serum uric acid (SUA) responders may also be defined as participants achieving and maintaining SUA <6 mg/dL for at least 80% of the time during Month 6 (Weeks 20, 22, and 24).
Blood samples may be collected prior to each pegloticase infusion for measurement of SUA levels using the Beckman Coulter AU System Uric Acid procedure. Participants were declared “non-responders” if there were SUA measures >6 mg/dL at 2 consecutive study visits beginning with the week 2 visit. […] If the SUA goal is not maintained before or at the 12-week mark, it was assumed that the participant had developed clinically relevant anti-pegloticase antibody and they received no further infusions. This assumption and subsequent discontinuation of pegloticase was consistent with the protocol of large phase III randomized controlled trials and the product label. A formal stopping rule was 2 occasions of SUA levels of greater than 6 mg/dL.
Clinical Chemistry—Blood samples were collected prior to each pegloticase infusion for measurement of SUA levels (primary efficacy parameter) using the Beckman Coulter AU System Uric Acid procedure. In this procedure uric acid is converted to hydrogen peroxide. Hydrogen peroxide reacts with reagent to produce a chromophore which is read bichromatically at 660/800 nm. The amount of dye formed is proportional to the uric acid concentration in the sample.
Serum samples for measurement of SUA levels were collected at the Screening Visit, the Week −4 Visit (prior to the first dose of MTX), and the Week −2 Visit during the MTX Run-in Period; within 48 hours prior to each pegloticase infusion and after the end of each pegloticase infusion prior to discharge from the site during the Pegloticase+IMM Period; at the non-infusion Week 52/End of Study/Early Termination Visits and at the Post Treatment 3 and 6 Month Follow-up Visits. Additional serum samples for SUA levels were collected at optional non-infusion (Frequent Sampling) Visits at Weeks 1 and 7. […] Subjects with SUA level >6 mg/dL at 2 consecutive visits beginning at Week 2 visit discontinued treatment, completed the End of Pegloticase Infusion Visit procedures within 2 weeks and continued the subject visits according to the protocol (without treatment).
Efficacy analyses were performed using the modified intention-to-treat (mITT) population, defined as all enrolled subjects who received ≥1 dose of pegloticase. The proportion of Month 6 responders was summarized, along with a 95% confidence interval for the proportion. The proportion of Month 3 and overall (Months 3 and 6 combined) responders was analyzed similarly.
A subject was declared a non-responder if the subject had SUA level >6 mg/dL at 2 consecutive study visits beginning with the Week 2 Visit. In addition, a subject who withdraws from study treatment for any reason after the first dose of pegloticase in the KXX+MTX Period and prior to Month 6 (for the primary endpoint) or Month 3 (for the secondary endpoint) was considered a non-responder if SUA values were not collected at the planned time points.
Patients were administered oral MTX (15 mg/week) and folate (1 mg/day) 4 weeks prior to the first pegloticase infusion (Day 1) and throughout the pegloticase treatment period. […]

[1] = Day 1 - Post-Infusion, Month 6 sUA Non-Responders
[2] = Day 1 - Post-Infusion, Month 6 sUA Responders
[3] = Day 1 - Post-Infusion, mITT, n=11
[4] = Early Termination Visit, Month 6 sUA Non-Responders
[5] = Early Termination Visit, mITT, n=3
[6] = End of Pegloticase Infusions Visit, Month 6 sUA Responders
[7] = End of Pegloticase Infusions Visit, mITT, n=2
[8] = Week 1, Month 6 sUA Non-Responders
[9] = Week 2 - Post-Infusion, Month 6 sUA Non-Responders
[10] = Week 2 - Post-Infusion, Month 6 sUA Responders
[11] = Week 2 - Post-Infusion, mITT, n=14
[12] = Week 2 - Pre-Infusion, Month 6 sUA Non-Responders
[13] = Week 2 - Pre-Infusion, Month 6 sUA Responders
[14] = Week 2 - Pre-Infusion, mITT, n=14
[15] = Week 4 - Post-Infusion, Month 6 sUA Non-Responders
[16] = Week 4 - Post-Infusion, Month 6 sUA Responders
[17] = Week 4 - Post-Infusion, mITT, n=13
[18] = Week 4 - Pre-Infusion, Month 6 sUA Non-Responders
[19] = Week 4 - Pre-Infusion, Month 6 sUA Responders
[20] = Week 4 - Pre-Infusion, mITT, n=14
[21] = Week 6 - Post-Infusion, Month 6 sUA Non-Responders
[22] = Week 6 - Post-Infusion, Month 6 sUA Responders
[23] = Week 6 - Post-Infusion, mITT, n=12
[24] = Week 6 - Pre-Infusion, Month 6 sUA Non-Responders

B1: pegloticase (protein)
chain: TYKKNDEVEFVRTGYGKDMIKVLHIQRDGKYHSIKEVATTVQLTLSSKKDYLHGDNSDVIPTDTIKNTVNVLAKFKGIKSIETFAVTICEHFLSSFKHVIRAQVYVEEVPWKRFEKNGVKHVHAFIYTPTGTHFCEVEQIRNGPPVIHSGIKDLKVLKTTQSGFEGFIKDQFTTLPEVKDRCFATQVYCKWRYHQGRDVDFEATWDTVRSIVLQKFAGPYDKGEYSPSVQKTLYDIQVLTLGQVPEIEDMEISLPNIHYLNIDMSKMGLINKEEVLLPLDNPYGKITGTVKRKLSSRL
modifications: monomethoxy PEG conjugated; Krystexxa Sequence
notes: covalent conjugate of uricase produced by a genetically modified strain of Escherichia coli and monomethoxypoly (ethylene glycol)
[1]
  sUA < 6 mg/dL, %: (100%)
  sUA Change from Baseline, Mean: -6.60 mg/dL
  sUA Change from Baseline, Median: -7.20 mg/dL
  sUA Observed, Mean: 2.13 mg/dL
  sUA Observed, Median: 1.20 mg/dL
[2]
  sUA < 6 mg/dL, %: (100%)
  sUA Change from Baseline, Mean: -7.55 mg/dL
  sUA Change from Baseline, Median: -7.50 mg/dL
  sUA Observed, Mean: 0.83 mg/dL
  sUA Observed, Median: 0.30 mg/dL
[3]
  sUA < 6 mg/dL, n (%): 11 (100%)
  sUA Change from Baseline, Mean (SD): −7.29 (2.254) mg/dL
  sUA Change from Baseline, Median: -7.30 mg/dL
  sUA Observed, Mean (SD): 1.18 (1.417) mg/dL
  sUA Observed, Median: 0.30 mg/dL
[4]
  sUA Change from Baseline, Mean: -0.57 mg/dL
  sUA Change from Baseline, Median: -0.20 mg/dL
  sUA Observed, Mean: 8.17 mg/dL
  sUA Observed, Median: 8.20 mg/dL
[5]
  sUA < 6 mg/dL, n (%): 0%
  sUA Change from Baseline, Mean (SD): −0.57 (0.635) mg/dL
  sUA Change from Baseline, Median: -0.20 mg/dL
  sUA Observed, Mean (SD): 8.17 (0.058) mg/dL
  sUA Observed, Median: 8.20 mg/dL
[6]
  sUA < 6 mg/dL, %: (100%)
  sUA Change from Baseline, Mean: -8.50 mg/dL
  sUA Change from Baseline, Median: -8.50 mg/dL
  sUA Observed, Mean: 0.30 mg/dL
  sUA Observed, Median: 0.30 mg/dL
[7]
  sUA < 6 mg/dL, n (%): 2 (100%)
  sUA Change from Baseline, Mean (SD): −8.50 (1.556) mg/dL
  sUA Change from Baseline, Median: -8.50 mg/dL
  sUA Observed, Mean (SD): 0.30 (0.000) mg/dL
  sUA Observed, Median: 0.30 mg/dL
[8]
  sUA < 6 mg/dL, %: (100%)
  sUA Change from Baseline, Mean: -8.10 mg/dL
  sUA Change from Baseline, Median: -8.10 mg/dL
  sUA Observed, Mean: 0.30 mg/dL
  sUA Observed, Median: 0.30 mg/dL
Week 1, Month 6 sUA Responders
  sUA < 6 mg/dL, %: (100%)
  sUA Change from Baseline, Mean: -6.88 mg/dL
  sUA Change from Baseline, Median: -7.15 mg/dL
  sUA Observed, Mean: 0.30 mg/dL
  sUA Observed, Median: 0.30 mg/dL
Week 1, mITT, n=6
  sUA < 6 mg/dL, n (%): 6 (100%)
  sUA Change from Baseline, Mean (SD): −7.28 (1.556) mg/dL
  sUA Change from Baseline, Median: -7.75 mg/dL
  sUA Observed, Mean (SD): 0.30 (0.000) mg/dL
  sUA Observed, Median: 0.30 mg/dL
[9]
  sUA < 6 mg/dL, %: (100%)
  sUA Change from Baseline, Mean: -8.43 mg/dL
  sUA Change from Baseline, Median: -8.10 mg/dL
  sUA Observed, Mean: 0.30 mg/dL
  sUA Observed, Median: 0.30 mg/dL
[10]
  sUA < 6 mg/dL, %: (100%)
  sUA Change from Baseline, Mean: -8.97 mg/dL
  sUA Change from Baseline, Median: -8.80 mg/dL
  sUA Observed, Mean: 0.30 mg/dL
  sUA Observed, Median: 0.30 mg/dL
[11]
  sUA < 6 mg/dL, n (%): 14 (100%)
  sUA Change from Baseline, Mean (SD): −8.86 (2.486) mg/dL
  sUA Change from Baseline, Median: -8.70 mg/dL
  sUA Observed, Mean (SD): 0.30 (0.000) mg/dL
  sUA Observed, Median: 0.30 mg/dL
[12]
  sUA < 6 mg/dL, %: (66.7%)
  sUA Change from Baseline, Mean: -5.17 mg/dL
  sUA Change from Baseline, Median: -5.70 mg/dL
  sUA Observed, Mean: 3.57 mg/dL
  sUA Observed, Median: 2.70 mg/dL
[13]
  sUA < 6 mg/dL, %: (100%)
  sUA Change from Baseline, Mean: -8.64 mg/dL
  sUA Change from Baseline, Median: -8.80 mg/dL
  sUA Observed, Mean: 0.63 mg/dL
  sUA Observed, Median: 0.30 mg/dL
[14]
  sUA < 6 mg/dL, n (%): 13 (92.9%)
  sUA Change from Baseline, Mean (SD): −7.90 (2.878) mg/dL
  sUA Change from Baseline, Median: -8.70 mg/dL
  sUA Observed, Mean (SD): 1.26 (2.163) mg/dL
  sUA Observed, Median: 0.30 mg/dL
[15]
  sUA < 6 mg/dL, %: (100%)
  sUA Change from Baseline, Mean: -8.60 mg/dL
  sUA Change from Baseline, Median: -8.60 mg/dL
  sUA Observed, Mean: 0.30 mg/dL
  sUA Observed, Median: 0.30 mg/dL
[16]
  sUA < 6 mg/dL, %: (100%)
  sUA Change from Baseline, Mean: -8.97 mg/dL
  sUA Change from Baseline, Median: -8.80 mg/dL
  sUA Observed, Mean: 0.30 mg/dL
  sUA Observed, Median: 0.30 mg/dL
[17]
  sUA < 6 mg/dL, n (%): 13 (100%)
  sUA Change from Baseline, Mean (SD): −8.92 (2.577) mg/dL
  sUA Change from Baseline, Median: -8.80 mg/dL
  sUA Observed, Mean (SD): 0.30 (0.000) mg/dL
  sUA Observed, Median: 0.30 mg/dL
[18]
  sUA < 6 mg/dL, %: (33.3%)
  sUA Change from Baseline, Mean: -3.70 mg/dL
  sUA Change from Baseline, Median: -1.80 mg/dL
  sUA Observed, Mean: 5.03 mg/dL
  sUA Observed, Median: 6.60 mg/dL
[19]
  sUA < 6 mg/dL, %: (100%)
  sUA Change from Baseline, Mean: -8.59 mg/dL
  sUA Change from Baseline, Median: -8.60 mg/dL
  sUA Observed, Mean: 0.68 mg/dL
  sUA Observed, Median: 0.30 mg/dL
[20]
  sUA < 6 mg/dL, η (%): 12 (85.7%)
  sUA Change from Baseline, Mean (SD): −7.54 (3.768) mg/dL
  sUA Change from Baseline, Median: -8.00 mg/dL
  sUA Observed, Mean (SD): 1.61 (2.637) mg/dL
  sUA Observed, Median: 0.30 mg/dL
[21]
  sUA < 6 mg/dL, %: (100%)
  sUA Change from Baseline, Mean: -9.10 mg/dL
  sUA Change from Baseline, Median: -9.10 mg/dL
  sUA Observed, Mean: 0.30 mg/dL
  sUA Observed, Median: 0.30 mg/dL
[22]
  sUA < 6 mg/dL, %: (100%)
  sUA Change from Baseline, Mean: -8.97 mg/dL
  sUA Change from Baseline, Median: -8.80 mg/dL
  sUA Observed, Mean: 0.30 mg/dL
  sUA Observed, Median: 0.30 mg/dL
[23]
  sUA < 6 mg/dL, n (%): 12 (100%)
  sUA Change from Baseline, Mean (SD): −8.98 (2.679) mg/dL
  sUA Change from Baseline, Median: -8.95 mg/dL
  sUA Observed, Mean (SD): 0.30 (0.000) mg/dL
  sUA Observed, Median: 0.30 mg/dL
[24]
  sUA < 6 mg/dL, %: (50.0%)
  sUA Change from Baseline, Mean: -4.65 mg/dL
  sUA Change from Baseline, Median: -4.65 mg/dL
  sUA Observed, Mean: 4.25 mg/dL
  sUA Observed, Median: 4.25 mg/dL
